Data on 13 molecules can be found in patent US20210380703A1 (RIGEL PHARMACEUTICALS, published 2021).

For test [1], the target named is T1, biotinylated goat anti-human kappa light chain.
T1 construct: positive control of the ELISA
As to the kind of experiment: ELISA, positive control. The method, boiled down: (§1)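 ELISA measured binding of ACVR2A-specific monoclonal antibodies to human and mouse ACVR2A. Biotinylated goat anti-human kappa light chain served as positive control and human Fc as negative control.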

The next test addresses T2, human ACVR2A (human, UniProt P27037 20-135, limits assumed).
T2 construct: also called activin receptor, type II A
Briefly: ELISA. The method, boiled down: as §1

The target of the next test is mouse ACVR2A (mouse, UniProt P27038 20-135, limits assumed). Briefly: ELISA. The essentials:
as §1
Note: test concentration or dose not given here.

T2 sequence (P27037 20-135 limits assumed): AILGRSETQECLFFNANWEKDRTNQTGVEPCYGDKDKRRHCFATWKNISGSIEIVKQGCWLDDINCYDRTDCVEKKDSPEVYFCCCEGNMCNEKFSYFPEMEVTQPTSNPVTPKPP
Chain of mouse ACVR2A (P27038 20-135 limits assumed): as the sequence (P27037 20-135 limits assumed) above, with K20R, V73I counted along it

B1: 365_G04 (antibody, V domains shown)
VH: EVQLLESGGGLVQPGGSLRLSCAASGFTFDSYSMNWVRQAPGKGLEWVAGINYNGGYTGYADSVKGRFTISRDNSKNTLYLQMNSLRAEDTAVYYCARGANWHDTHLDYWGQGTLVTVSS
VL: DIQMTQSPSSLSASVGDRVTITCRASQSIVSYVNWYQQKPGKAPKLVIYAATSLASGVPSRFSGSGSGTDFTLTISSLQPEDFATYYCQQSYDTPLTFGGGTKVEIK
notes: Group III
Regarding B1, the optical density in test [1] is 3.29 OD; in the test with human ACVR2A it was 2.1 OD; with mouse ACVR2A it was 2.48 OD.

B2: 365_H07 (antibody, V domains shown)
VH: EVQLLESGGGLVQPGGSLRLSCAASGFTFDSYSMNWVRQAPGKGLEWVSGINYNGGYTSYADSVKGRFTISRDNSKNTLYLQMNSLRAEDTAVYYCARGANWHDTHLDYWGQGTLVTVSS
VL: DIQMTQSPSSLSASVGDRVTITCRASQSISTYVNWYQQKPGKAPKLLIYAATSRHSGVPSRFSGSGSGTDFTLTISSLQPEDFATYYCQQSYENPLTFGGGTKVEIK
notes: Group III
For B2, the optical density in test [1] was found to be 3.43 OD; with human ACVR2A, 2.51 OD; with mouse ACVR2A it was 2.75 OD.

B3: 366_C05 (antibody, V domains shown)
VH: EVQLLESGGGLVQPGGSLRLSCAASGFTFDDYGMHWVRQAPGKGLEWVSSINYNGGYTGYADSVKGRFTISRDNSKNTLYLQMNSLRAEDTAVYYCARAATWHDTHLDYWGQGTLVTVSS
VL: DIQMTQSPSSLSASVGDRVTITCRASQSIISYLNWYQQKPGKAPKLVIYAATSRASGVPSRFSGSGSGTDFTLTISSLQPEDFATYYCQQSYDSPLTFGGGTKVEIK
notes: Group II
As to B3, the figures for the optical density (in test [1]; with human ACVR2A; with mouse ACVR2A) were 3.4 OD, 2.01 OD and 2.36 OD, respectively.

B4: 366_A02 (antibody, V domains shown)
VH: EVQLLESGGGLVQPGGSLRLSCAASGFTFDSYGMNWVRQAPGKGLEWVASINYNSGYKGYADSVKGRFTISRDNSKNTLYLQMNSLRAEDTAVYYCARAANWHDTHLDYWGQGTLVTVSS
VL: DIQMTQSPSSLSASVGDRVTITCRASQSIVSYVNWYQQKPGKAPKLLIYAATSRASGVPSRFSGSGSGTDFTLTISSLQPEDFATYYCQQSYDLPLTFGGGTKVEIK
notes: Group I
For the molecule B4, the optical density came to 3.58 OD in test [1], 2.45 OD with human ACVR2A and 2.69 OD with mouse ACVR2A.

B5: 366_B07 (antibody, V domains shown)
VH: EVQLLESGGGLVQPGGSLRLSCAASGFTFSDYGMNWVRQAPGKGLEWVSGINYNGGYTSYADSVKGRFTISRDNSKNTLYLQMNSLRAEDTAVYYCARGANWHDTHLDYWGQGTLVTVSS
VL: DIQMTQSPSSLSASVGDRVTITCRASQSIVSYLNWYQQKPGKAPKLVIYATTSRASGVPSRFSGSGSGTDFTLTISSLQPEDFATYYCQQSYNSPLTFGGGTKVEIK
notes: Group III
In the case of B5, the figures for the optical density (in test [1]; in the test with human ACVR2A; with mouse ACVR2A) were 3.22 OD, 1.8 OD and 1.92 OD, respectively.

B6: 366_B09 (antibody, V domains shown)
VH: EVQLLESGGGLVQPGGSLRLSCAASGFTFSDYGMHWVRQAPGKGLEWVSSINYNSGYKSYADSVKGRFTISRDNSKNTLYLQMNSLRAEDTAVYYCARAATWHDTHLDYWGQGTLVTVSS
VL: DIQMTQSPSSLSASVGDRVTITCRASQSILTYLNWYQQKPGKAPKLVIYAATSRHSGVPSRFSGSGSGTDFTLTISSLQPEDFATYYCQQSYDSPLTFGGGTKVEIK
notes: Group II
On to B6, for which the optical density in test [1] was 3.39 OD; in the test with human ACVR2A, 2.3 OD; with mouse ACVR2A, 2.53 OD.

B7: 365_G08 (antibody, V domains shown)
VH: EVQLLESGGGLVQPGGSLRLSCAASGFTFSSYGMHWVRQAPGKGLEWVASINYNGGYTSYADSVKGRFTISRDNSKNTLYLQMNSLRAEDTAVYYCARAATWHDTHLDYWGQGTLVTVSS
VL: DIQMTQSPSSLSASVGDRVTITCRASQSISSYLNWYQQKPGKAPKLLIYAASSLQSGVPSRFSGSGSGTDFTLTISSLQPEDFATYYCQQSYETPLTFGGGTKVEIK
notes: Group II
On to B7, for which the optical density is 3.5 OD in test [1], 2.53 OD with human ACVR2A and 2.58 OD in the test with mouse ACVR2A.

B8: 365_G07 (antibody, V domains shown)
VH: EVQLLESGGGLVQPGGSLRLSCAASGFTFDSYGMHWVRQAPGKGLEWVSSINYNGGYTSYADSVKGRFTISRDNSKNTLYLQMNSLRAEDTAVYYCARAANWHDTALDYWGQGTLVTVSS
VL: DIQMTQSPSSLSASVGDRVTITCRASQSIVSYLNWYQQKPGKAPKLLIYAATSRASGVPSRFSGSGSGTDFTLTISSLQPEDFATYYCQQSYDNPLTFGGGTKVEIK
notes: Group I
Consider B8, for which the optical density in test [1] was determined as 3.47 OD; with human ACVR2A it was 2.42 OD; with mouse ACVR2A, 2.6 OD.

B9: 366_A04 (antibody, V domains shown)
VH: EVQLLESGGGLVQPGGSLRLSCAASGFTFSSYGMNWVRQAPGKGLEWVAGINYNGGYTSYADSVKGRFTISRDNSKNTLYLQMNSLRAEDTAVYYCARAANWHDTALDYWGQGTLVTVSS
VL: DIQMTQSPSSLSASVGDRVTITCRASQSILTYLNWYQQKPGKAPKLVIYAATSLASGVPSRFSGSGSGTDFTLTISSLQPEDFATYYCQQSDDSPLTFGGGTKVEIK
notes: Group I
For the molecule B9, the figures for the optical density (in test [1]; in the test with human ACVR2A; with mouse ACVR2A) were 3.4 OD, 1.82 OD and 1.99 OD, respectively.

B10: 365_G09 (antibody, V domains shown)
VH: EVQLLESGGGLVQPGGSLRLSCAASGFTFSSYSMNWVRQAPGKGLEWVSGINYNGGYKSYADSVKGRFTISRDNSKNTLYLQMNSLRAEDTAVYYCARGANWHDTHLDYWGQGTLVTVSS
VL: DIQMTQSPSSLSASVGDRVTITCRASQSIITYLNWYQQKPGKAPKLVIYAATSRASGVPSRFSGSGSGTDFTLTISSLQPEDFATYYCQQSYNSPLTFGGGTKVEIK
notes: Group III
For the molecule B10, the optical density in test [1] was determined as 3.67 OD; in the test with human ACVR2A, 2.62 OD; with mouse ACVR2A it was 2.93 OD.

B11: 365_G05 (antibody, V domains shown)
VH: EVQLLESGGGLVQPGGSLRLSCAASGFTFSSYGMNWVRQAPGKGLEWVSGINYNGGYKGYADSVKGRFTISRDNSKNTLYLQMNSLRAEDTAVYYCARGANWHDTALDYWGQGTLVTVSS
VL: DIQMTQSPSSLSASVGDRVTITCRASQSILSYLNWYQQKPGKAPKLVIYAATSLASGVPSRFSGSGSGTDFTLTISSLQPEDFATYYCQQSYENPLTFGGGTKVEIK
notes: Group III
As to B11, the optical density in test [1] was determined as 3.35 OD; with human ACVR2A, 2.44 OD; in the test with mouse ACVR2A, 2.54 OD.

B12: 365_G06 (antibody, V domains shown)
VH: EVQLLESGGGLVQPGGSLRLSCAASGFTFDSYGMHWVRQAPGKGLEWVAGINYNGGYTSYADSVKGRFTISRDNSKNTLYLQMNSLRAEDTAVYYCARAATWHDTHLDYWGQGTLVTVSS
VL: DIQMTQSPSSLSASVGDRVTITCRASQSILSYLNWYQQKPGKAPKLLIYAATSLASGVPSRFSGSGSGTDFTLTISSLQPEDFATYYCQQSDSTPLTFGGGTKVEIK
notes: Group II
As to B12, the figures for the optical density (in test [1]; with human ACVR2A; with mouse ACVR2A) were 3.34 OD, 2.2 OD and 2.02 OD, respectively.

B13: 365_H08 (antibody, V domains shown)
VH: EVQLLESGGGLVQPGGSLRLSCAASGFTFSSYGMHWVRQAPGKGLEWVASINYNGGYKSYADSVKGRFTISRDNSKNTLYLQMNSLRAEDTAVYYCARAANWHDTALDYWGQGTLVTVSS
VL: not shown
notes: Group I
Regarding B13, the optical density turned out to be 3.59 OD in test [1], 2.67 OD with human ACVR2A and 2.61 OD in the test with mouse ACVR2A.
